Experimental data from patent publication US20060217306A1, “Systemic treatment of infections with defensins” (Novozymes A/S, priority 2005, published 2006).
Values joined by “and” are separate entries in the source; they are usually repeats but may differ in a detail not shown here. Identical values can stand only once. No end group written: not given here.

Key:
[1] = Stability in human serum; residual activity by radial diffusion assay with Staphylococcus carnosus; type: in vitro ADME; conditions: 37° C.; for Activity (%) 10% serum / Activity (%) 90% serum: 100 mg/L; for Activity (%) 10% serum: 10% human serum; for Activity (%) 90% serum: 90% human serum
Experimental: To assess the stability of the defensins in human serum, according to the invention, a solution of 100 mg/L of a defensin in fresh normal human serum is incubated at 37 degrees Celsius for 0, 1, 3, 6 and 24 hours. Residual activity is measured by performing radial diffusion assays with a sensitive indicator organism (e.g., Staphylococcus carnosus or E. coli); by performing a quantification by HPLC, LCMSMS; or by performing various ELISA techniques well known to a person skilled in the art.
To assess serum stability, Plectasin (100 mg/L) was incubated at 37° C. in 10% and 90% fresh normal human serum for 0, 1, 3, 6 & 24 hours. Residual activities were measured by performing radial diffusion assays with Staphylococcus carnosus.

[2] = Single dose intravenous toxicity study in the mouse / maximum tolerable dose; type: in vivo; conditions: 125 mg/kg single i.v. dose
Experimental: The study, to determine the maximum tolerable dose in mice, should be initiated with a sighting study to select the appropriate dose level for the main study. For example, six dose levels could be investigated using one male and one female mouse at each dose level.
On the basis of any signs of toxicity, the selected dose is administered to five male and five female mice as a single intravenous dose in a dose volume of 10 ml/kg. The dose should be administered slowly in the tail vein (e.g., 20 seconds per injection using a 1 ml syringe with a 25G hypodermic needle). All animals should be observed for any signs of toxicity after 15 minutes, 1 hour, 3 hours, 6 hours and 24 hours after administration.
A single intravenous dose was administered slowly in the tail vein (20 seconds per injection) using a 1 ml syringe with a 25G hypodermic needle to 5 male and 5 female mice. […] Body weight was recorded on Day 1, 2, 8 and 15. At termination of the study gross necropsy examination of all animals was carried out.

[3] = Systemic availability: in vivo kinetics, serum concentration by LCMSMS; parameters: species or system NMRI female mice; conditions: for Serum concentration: 14 mg/kg single dose, individual mice; for Maximum observed mean concentration / Time of maximum observed mean concentration: serum
Experimental: The in vivo kinetics of plectasin was investigated in NMRI female mice, 25-30 gram (Harlan Scandinavia Aps), after a single 14 mg/kg dose, administered by either intravenous, subcutaneous or intraperitoneal routes. Plectasin concentrations in serum samples were determined 5, 15, 30, 60, 120 and 180 minutes after dosing, using two mice at each time point. At each time point, urine was collected, then mice were anaesthetized with CO2 and blood collected. The blood samples were centrifuged and serum collected. The concentration of plectasin in serum and urine were determined by LCMSMS.
The maximum observed mean concentrations for i.v., s.c. and i.p. dosing were: 95 mg/L after 5 min., 55 and 34 mg/L after 30 min., respectively.

[4] = test system: S. pneumoniae strain 68034; experiment: Treatment of pneumococcal peritoneal infection, colony counts in peritoneal wash, strain 68034; type: in vivo, mice; conditions: for Colony counts: strain 68034, peritoneal wash, individual mice
Experimental: (§1) Three different pneumococcal strains were employed in this study (6A, D39 and 68034). Three mice per sampling point were inoculated with a specific S. pneumoniae i.p., and were treated 1 hour later with a single dose of 10 mg/kg Plectasin. Peritoneal wash was sampled for microbial counts prior to treatment (T=0), and at T=2 and T=5 hrs after. The colony counts are listed below for all three strains.

S. pneumoniae strain D39 [5] = experiment: Treatment of pneumococcal peritoneal infection, colony counts in peritoneal wash, strain D39; type: in vivo, mice; conditions: for Colony counts: strain D39, peritoneal wash, individual mice
Experimental: as §1

S. pneumoniae strain 6A = experiment: Treatment of pneumococcal peritoneal infection, colony counts in peritoneal wash, strain 6A; type: in vivo, mice; conditions: for Colony counts: peritoneal wash, individual mice
Experimental: as §1

S. pneumoniae D39 = experiment: Survival after peritoneal infection with S. pneumoniae D39; type: in vivo; conditions: groups of eight mice, vehicle 0/8
Experimental: as §1
Treatment with Plectasin s.c. 10 mg/kg was initiated one hour after inoculation as described in Example 4A above. The following dosing regimens were investigated in groups of eight mice: vehicle treated, Plectasin once daily (OD) for one day, twice daily (BID) for one day or BID for two days. […] The survival fraction of the vehicle treated control group was 0/8 mice (P<0.0002).

S. pneumoniae 68034 = experiment: Survival after peritoneal infection with S. pneumoniae 68034; type: in vivo; conditions: s.c. 10 mg/kg BID for one or two days, groups of eight mice; vehicle 0/8, P<0.0002
Experimental: as §1
Treatment with Plectasin s.c. 10 mg/kg was initiated one hour after inoculation as described in Example 4A above. The following dosing regimens were investigated in groups of eight mice: vehicle treatment, Plectasin BID for one or two days. The survival fraction at seven days post-infection was 6/8 for Plectasin treated mice and 0/8 for vehicle treated mice (P<0.0002).

S. pneumoniae strain D39 [6] = experiment: Treatment of pneumococcal pneumonia, colony counts in lung homogenates; type: in vivo, mice; conditions: for Colony counts in lung homogenates: one day after treatment, individual mice
Experimental: Six to seven mice per sampling point (12 in the no-treatment group) were inoculated with S. pneumoniae (data only shown for strain D39) via the nasopharynx, and 24 hrs later the animals received Plectasin 10 mg/kg or penicillin 30 mg/kg.

[7] = 2 hours after single dose 10 mg/kg, 10 mg/kg
[8] = 5 hours after single dose 10 mg/kg, 10 mg/kg

## Plectasin: Defensin shown as amino acids 1 to 40 of SEQ ID NO: 2 in international patent application WO 03/044049; defensin antimicrobial peptide (GFGCNGPWDEDDMQCHNHCKSIKGYKGGYCAKGGFVCKCY; ends and bridges not checked; cysteine pairing not given here; UniProt Q53I06 56-95, looked up)
[1]; 0 hours
  Activity (%) 10% serum: 100%
  Activity (%) 90% serum: 100%
[1]; 1 hour
  Activity (%) 10% serum: ˜100%
  Activity (%) 90% serum: ˜100%
[1]; 3 hours
  Activity (%) 10% serum: ˜100%
  Activity (%) 90% serum: ˜100%
[1]; 6 hours
  Activity (%) 10% serum: ˜100%
  Activity (%) 90% serum: ˜100%
[1]; 24 hours
  Activity (%) 10% serum: ˜100%
  Activity (%) 90% serum: ˜100%
[1]; after 24 hours of incubation in 90% human serum
  Residual activity (in words): Full activity was retained
[2]; 10 ml/kg, 15 minutes after treatment, 5 male and 5 female mice
  Finding at the injection site: all animals had a discoloration at the injection site
[2]; 10 ml/kg, observed over 14 days
  Other signs of toxicity: No other signs of toxicity were observed
[2]; at termination of the study
  Gross necropsy: no abnormalities
[3]; 14 mg/kg, mice, estimated
  Terminal half-life: 49 to 54 min
[3]; IP, 5 min, 14 mg/kg
  Serum concentration: 9400 ng/mL and 7200 ng/mL
[3]; IP, 15 min, 14 mg/kg
  Serum concentration: 26000 ng/mL and 31600 ng/mL
[3]; IP, 30 min, 14 mg/kg
  Serum concentration: 32500 ng/mL and 35400 ng/mL
[3]; IP, 60 min, 14 mg/kg
  Serum concentration: 27700 ng/mL and 14300 ng/mL
[3]; IP, 120 min, 14 mg/kg
  Serum concentration: 10900 ng/mL and 20300 ng/mL
[3]; IP, 180 min, 14 mg/kg
  Serum concentration: 2600 ng/mL and 5600 ng/mL
[3]; IV, 5 min, 14 mg/kg
  Serum concentration: 92100 ng/mL and 97900 ng/mL
[3]; IV, 15 min, 14 mg/kg
  Serum concentration: 58800 ng/mL and 58100 ng/mL
[3]; IV, 30 min, 14 mg/kg
  Serum concentration: 35700 ng/mL and 27300 ng/mL
[3]; IV, 60 min, 14 mg/kg
  Serum concentration: 14900 ng/mL and 15600 ng/mL
[3]; IV, 120 min, 14 mg/kg
  Serum concentration: 5300 ng/mL and 4900 ng/mL
[3]; IV, 180 min, 14 mg/kg
  Serum concentration: 2300 ng/mL and 3500 ng/mL
[3]; SC, 5 min, 14 mg/kg
  Serum concentration: 20300 ng/mL and 25400 ng/mL
[3]; SC, 15 min, 14 mg/kg
  Serum concentration: 49400 ng/mL and 56600 ng/mL
[3]; SC, 30 min, 14 mg/kg
  Serum concentration: 50300 ng/mL and 60000 ng/mL
[3]; SC, 60 min, 14 mg/kg
  Serum concentration: 24800 ng/mL and 27200 ng/mL
[3]; SC, 120 min
  Serum concentration: 29800 ng/mL
[3]; SC, 180 min, 14 mg/kg
  Serum concentration: 4600 ng/mL and 7200 ng/mL
[3]; i.p., 14 mg/kg
  Maximum observed mean concentration: 34 mg/L
  Time of maximum observed mean concentration: 30 min
[3]; i.v. bolus administration, WinNonlin
  Concentration-time behavior: two-compartment behavior
[3]; i.v., 14 mg/kg
  Maximum observed mean concentration: 95 mg/L
  Time of maximum observed mean concentration: 5 min
[3]; s.c., 14 mg/kg
  Maximum observed mean concentration: 55 mg/L
  Time of maximum observed mean concentration: 30 min
[4]; strain 68034, 10 mg/kg, P<0.0001
  Colony counts compared to vehicle treated mice: significant lower
[4]; 0 hours (prior to treatment)
  Colony counts: 3E5 and 5.5E5 and 3.5E5
[4]; [7]
  Colony counts: 3.25E4 (2×) and 1.5E4
[4]; [8]
  Colony counts: 4E2 and 1E2 and 7.5E1
S. pneumoniae strain D39 [5]; strain D39, 10 mg/kg, P<0.0001
  Colony counts compared to vehicle treated mice: significant lower
S. pneumoniae strain D39 [5]; 0 hours (prior to treatment)
  Colony counts: 3.25E6 and 1.8E6 (2×)
S. pneumoniae strain D39 [5]; [7]
  Colony counts: 2.75E4 and 1.1E4 and 2E4
S. pneumoniae strain D39 [5]; [8]
  Colony counts: 2.5E2 and 3.5E2 and 1E2
S. pneumoniae strain 6A; 10 mg/kg, P<0.0001
  Colony counts compared to vehicle treated mice: significant lower
S. pneumoniae strain 6A; 0 hours (prior to treatment)
  Colony counts: 1.1E6 and 1.55E6 and 1E6
S. pneumoniae strain 6A; [7]
  Colony counts: 3.5E5 (2×) and 1.78E5
S. pneumoniae strain 6A; [8]
  Colony counts: 2.13E4 and 1.43E3 and 1.45E3
S. pneumoniae D39; s.c. 10 mg/kg BID for two days
  Survival over the 7-day study period: All mice treated with Plectasin survived
S. pneumoniae D39; s.c. 10 mg/kg once daily (OD) for one day
  Survival over the 7-day study period: All mice treated with Plectasin survived
S. pneumoniae D39; s.c. 10 mg/kg twice daily (BID) for one day
  Survival over the 7-day study period: except for one mouse
S. pneumoniae 68034
  Survival fraction at seven days post-infection: 6/8
S. pneumoniae strain D39 [6]; strain D39, 10 mg/kg
  Colony counts compared to no treatment: significant reduction
S. pneumoniae strain D39 [6]; strain D39, 10 mg/kg given 24 hrs after inoculation
  Colony counts in lung homogenates: 3E1 (2×) and 5.25E3 and 6.75E2 and 9.75E4 and 2.25E3 and 1.5E2

## penicillin [reference compound]
S. pneumoniae strain D39 [6]; strain D39, 30 mg/kg
  Colony counts compared to no treatment: significant reduction
S. pneumoniae strain D39 [6]; strain D39, 30 mg/kg given 24 hrs after inoculation
  Colony counts in lung homogenates: 7.5E1 (3×) and 4.5E3 and 2.25E4 and 4.89E5
